Article PMC9249340 (FEBS Open Bio, 2022)
Where a chain is given by its changes, count along the chain named. In names and notes the source's numbering stands.

B1: GDAP1Δ303‐358 R120W (domain or fragment, human, UniProt Q8TB36 1-302, looked up)
chain: MAERQEEQRGSPPLRAEGKADAEVKLILYHWTHSFSSQKVRLVIAEKALKCEEHDVSLPLSEHNEPWFMRLNSTGEVPVLIHGENIICEATQIIDYLEQTFLDERTPRLMPDKESMYYPWVQHYRELLDSLPMDAYTHGCILHPELTVDSMIPAYATTRIRSQIGNTESELKKLAEENPDLQEAYIAKQKRLKSKLLDHDNVKYLKKILDELEKVLDQVETELQRRNEETPEEGQQPWLCGESFTLADVSLAVTLHRLKFLGFARRNWGNGKRPNLETYYERVLKRKTFNKVLGHVNNILIS
notes: GDAP1, human; printed as GDAP1Δ303-358 (residues 303-358 deleted) with the CMT2K-linked mutation R120W; Disease mutation that occurs in patients; also called R120W GDAP1; GDAP1∆303‐358 R120W; source: E. coli BL21(DE3), purified (Ni-NTA, TEV cleavage, second Ni-NTA, SEC); not shown: His6, N-terminal, cleaved
B2: GDAP1Δ303‐358 H123R (domain or fragment, human, UniProt Q8TB36 1-302, looked up)
chain: B1 chain with W120R, H123R
notes: GDAP1, human; printed as GDAP1Δ303-358 (residues 303-358 deleted) with the Finnish founder CMT2K mutation H123R; Disease mutation that occurs in patients; also called H123R GDAP1; GDAP1∆303‐358 H123R; source: E. coli BL21(DE3), purified (Ni-NTA, TEV cleavage, second Ni-NTA, SEC); not shown: His6, N-terminal, cleaved
B3: GDAP1Δ295‐358 wild type (domain or fragment, human, UniProt Q8TB36 1-294, looked up)
chain: MAERQEEQRGSPPLRAEGKADAEVKLILYHWTHSFSSQKVRLVIAEKALKCEEHDVSLPLSEHNEPWFMRLNSTGEVPVLIHGENIICEATQIIDYLEQTFLDERTPRLMPDKESMYYPRVQHYRELLDSLPMDAYTHGCILHPELTVDSMIPAYATTRIRSQIGNTESELKKLAEENPDLQEAYIAKQKRLKSKLLDHDNVKYLKKILDELEKVLDQVETELQRRNEETPEEGQQPWLCGESFTLADVSLAVTLHRLKFLGFARRNWGNGKRPNLETYYERVLKRKTFNKVLG
notes: GDAP1, human; printed as GDAP1Δ295-358 (residues 295-358 deleted); also called wtGDAP1Δ295‐358; GDAPΔ295‐358; source: E. coli BL21(DE3), purified (Ni-NTA, TEV cleavage, second Ni-NTA, SEC on Superdex 200); not shown: His6, N-terminal, cleaved

How the values were obtained:
[1] = target: the molecule itself; assay: SEC-SAXS; 50 µL at 8.5-10 mg/mL on a BioSEC3-300 column, 25 mM HEPES pH 7.5, 300 mM NaCl, +15 °C; monomer to dimer
[2] = target: the molecule itself; assay: crystal structure; wild-type GDAP1Δ295-358, new crystal form, +8 °C, 200 mM NH4 formate, 25% PEG3350, 8.64 mg/mL protein

Protein | stoichiometry N [1] | binding result [2]
B1 | 2 | –
B2 | 2 | –
B3 | – | binds
